In patent publication US5536648, “Amplified DNA assay using a double stranded DNA binding protein” (Amrad Corporation Limited):

Assays:
[1] = target: T1, GST-GCN4 6.8 (full-length GCN4, 281 aa) (Saccharomyces cerevisiae, UniProt P03069 P03069:1-281); experiment: microtitre plate capture, MTPBS-Tween, 20 C; binds with 1 ug/ml carrier human DNA; conditions: tags: N-terminal GST (Schistosoma japonicum), pGEX-2T, E. coli; chain copies: 2
[2] = target: T1, GST-GCN4 6.8 (full-length GCN4, 281 aa); experiment: microtitre plate capture; binds with 1 ug/ml carrier human DNA; oligo called d2 in results, d1 in methods; conditions: tags: N-terminal GST (Schistosoma japonicum), pGEX-2T, E. coli; chain copies: 2

T1 sequence (P03069 whole entry, one chain of several): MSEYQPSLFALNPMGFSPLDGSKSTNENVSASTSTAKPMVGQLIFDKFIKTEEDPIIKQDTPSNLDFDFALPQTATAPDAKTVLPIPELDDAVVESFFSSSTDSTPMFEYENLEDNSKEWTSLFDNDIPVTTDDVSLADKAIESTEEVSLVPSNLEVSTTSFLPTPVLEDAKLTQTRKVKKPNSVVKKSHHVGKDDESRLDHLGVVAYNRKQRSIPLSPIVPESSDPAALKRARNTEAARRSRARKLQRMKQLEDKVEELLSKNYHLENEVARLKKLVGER

Row | Binder | binding result [1] | binding result [2]
1 | HIV p24 c-d PCR product with GCN4 site (primer d shown) (dsDNA) DNA 1: AAGTGACTCAAGTGACTCAATCCTTGTCTTATGTCCAGAA DNA 2: TTCTGGACATAAGACAAGGATTGAGTCACTTGAGTCACTT | binds | –
2 | HIV p24 c-d1 (figure: d2) PCR product with GCN4 site (primer d1 shown) (dsDNA) DNA 1: AGCGGATGACTCATTTTTTTTTCCTTGTCTTATGTCCAGAA DNA 2: TTCTGGACATAAGACAAGGAAAAAAAAATGAGTCATCCGCT | – | binds
